From patent US8673594B2, “Methods for stimulating nervous system regeneration and repair by regulating arginase I and polyamine synthesis” (Research Foundation of City University of New York, priority 2000, dated 2014)

Experiments:
[1] = system: Arg I RNA in cerebellar neurons; experiment: Arginase I RNA level in cerebellar neurons by RT-PCR and quantitative PCR; type: cell-based; conditions: overnight dbcAMP 1 mM or BDNF 200 ng/ml; P<0.005
Procedure: FIG. 4: Priming Neurons With Brain Derived Neurotrophic Factor (BDNF) or Dibutyryl (db) cAMP Up-Regulates Arginase I RNA Levels In Cerebellar Neurons. RNA isolated from cerebellar neurons without treatment (lane 2), from cerebellar neurons exposed overnight to either BDNF (200 ng/ml) (lane 3) or dbcAMP (1 mM) (lane 4), was reverse, transcribed and subjected to (A) semi-quantitative PCR; or (B) quantitative PM; using primers specific for arginase I. As a positive control, RNA isolated from liver tissue was subjected to RT PCR and quantitative PCR procedures using the same primers ((A), lane 1; (B), “Liver”)
To determine whether elevated cAMP levels causes an up-regulation of arginase expression, cerebellar neurons were primed with neurotrophins (BDNF) or dbcAMP (Example 1), and RNA and protein was extracted from primed neurons (Example 2). The extracted RNA was used as a template for reverse transcription and PCR amplification using primers specific for the gene encoding the enzyme arginase I (“Arg I”), an isoform of arginase abundant in liver tissue but barely detectable in other tissues.
Cerebellar neurons were primed with neurotrophins (BDNF, GDNF) or dbcAMP according to the procedures in Example 1. […]
Finally, ArgI amplified cDNA samples were detected by electrophoretic separation on a 1% agarose gel and staining with ethidium bromide.

[2] = system: ArgI protein in cerebellar neurons; experiment: Arginase I protein level in cerebellar neurons by SDS-PAGE and Western blot; type: cell-based; conditions: for increase in amount of ArgI protein: after 1 hour of exposure; for increase in amount of ArgI protein / time of peak of ArgI protein increase post-treatment / time for which ArgI protein increase was sustained: dbcAMP 1 mM or BDNF 200 ng/ml; for time for which ArgI protein increase was sustained: declining by 24 hours
Procedure: Cerebellar neurons were untreated (−) or exposed to either (A) 200 ng/ml BDNF or (B) 1 mM dbcAMP for 1 hour (h), 3 h, 21 h or 24 h; or (C) 200 ng/ml GDNF (+) for 1 h, 3 h or 5 h and the cells lysed in the presence of protease inhibitors. Total protein (23 μg) was subjected to SDS-polyacrylamide gel (12%) electrophoresis (SDS-PAGE), transferred to nitrocellulose membrane and immunostained with antibody to Arg I. The arrows indicate the position of ArgI polypeptide.
We next assessed the expression of ArgI in cerebellar neurons at the protein level. After exposure of cerebellar neurons to either dbcAMP or BDNF for various times, neurons were lysed, proteins were extracted and the extracted proteins were separated by SDS PAGE before being transferred to membrane and immunostained with a polyclonal antibody against arginase I (see Example 2).
Cerebellar neurons were untreated (−) or exposed to 200 ng/ml GDNF for 1 h, 3 h or 5 h and the cells lysed in the presence of protease inhibitors. Total protein (23 μg) was subjected to SDS-polyacrylamide gel (12%) electrophoresis (SDS-PAGE), transferred to nitrocellulose membrane and immunostained with antibody to Arg I. As shown in FIG. 5(C), the amount of ArgI polypeptide increased at least two-fold after treatment of neurons with GDNF.
Neurons were lysed, proteins were extracted and the extracted proteins (23 μg of total protein per lane) separated by SDS-polyacrylamide gel (12%) electrophoresis (SDS-PAGE) according to well-known procedures (see Ausubel et al., supra). Separated proteins were transferred to nitrocellulose membrane and immunostained with antibody to Arg I. The results are shown in FIG. 5, where the arrows indicate the position of ArgI polypeptide. Polyclonal antibodies were generated against the recombinant arginase of Cavalli at al., Biochemistry, 33, pp. 10652-657 (1994), which described the recombinant expression and purification of rat liver arginase I in E. coli. Polyclonal antibodies were generated essentially according to the procedures of Hanly et al., ILAR Journal, 37, pp. 141-152 (1995), incorporated herein by reference.
For the measurement of arginase I protein levels by immunoblot, cells were harvested and washed with ice cold PBS and then resuspended (100 μl/10^7 cells) in ice cold extraction buffer containing 50 mM Tris-HCl, pH 7.4, 150 mM NaCl, 2 mM EDTA, Triton-X 100, 1 mM phenylmethylsulfonyl fluoride (PMSF), 10 micrograms/ml leupeptin, 1 micromolar pepstatin, 1 mM N-ethylmaleimide (NEM), 2 mM Na3VO4, 20 mM sodium pyrophosphate, and 50 mM NaP). Lysates were centrifuged at 15,000 RPM at 4 degrees centigrade for 30 minutes. The clear cytosol was separated from the insoluble pellet fraction and immediately used for immunoblot. The supernatants were removed carefully and the protein concentration was quantified by the Bradford method. Lysates were mixed with boiling Laemmli's buffer (1× is 100 mM Tris-HCl, pH 6.8, 4% SDS, 200 mM dithiothreitol, 20% glycerol, 2% SDS, 0.2% bromophenol blue, 10 micrograms/ml aprotinin, 10 micrograms/ml leupeptin). The samples were boiled for 10 minutes at 100° C. and centrifuged at 15,000 rpm for 10 seconds. Approximately 30 micrograms of protein was electrophoresed under reducing conditions on 10% SDS-polyacrylamide gels and transferred to nitrocellulose membrane. Membranes were blocked in 5% skim milk in TBST (Tris, pH 7.4; 150 mM NaCl; 0.05% Tween 20) for 30 minutes at room temperature. Blots were probed with primary antibodies overnight at 4° C., followed by incubation with anti-rabbit or anti-mouse IgG conjugated with horseradish peroxidase (Bio-Rad, Hercules, Calif.) for 1 hour. Signals were detected using the ECL system (Amersham Corp, Arlington, Heights, Ill.).

Row | Molecule | increase in amount of Arg I RNA by quantitative PCR [1] | increase in amount of ArgI protein [2] | time of peak of ArgI protein increase post-treatment [2] | time for which ArgI protein increase was sustained [2] [h] | increase in amount of ArgI polypeptide ([2]; 200 ng/ml GDNF for 1 h, 3 h or 5 h)
1 | CCCC(=O)Nc1ncnc2c1ncn2[C@@H]1O[C@@H]2COP(=O)(O)O[C@H]2[C@H]1OC(=O)CCC [dbcAMP, dibutyryl cAMP] | about 50% | at least two-fold | around 3 hours | 21 | 
2 | BDNF: Brain-derived neurotrophic factor, Trk-family neurotrophin (protein, UniProt P23560 19-247, looked up) Neurotrophic factor BDNF …: APMKEANIRGQGGLAYPGVRTHGTLESVNGPKAGSRGLTSLADTFEHVIEELLDEDQKVRPNEENNKDADLYTSRVMLSSQVPLEPPLLFLLEEYKNYLDAANMSMRVRRHSDPARRGELSVCDSISEWVTAADKKTAVDMSGGTVTVLEKVPVSKGQLKQYFYETKCNPMGYTKEGCRGIDKRHWNSQCRTTQSYVRALTMDSKKRIGWRFIRIDTSCVCTLTIKRGR | about 50% | at least two-fold | around 3 hours | 21 | 
3 | GDNF: glial cell line-derived neurotrophic factor (protein, UniProt P39905 78-211, looked up) Glial cell line-derived …: SPDKQMAVLPRRERNRQAAAANPENSRGKGRRGQRGKNRGCVLTAIHLNVTDLGLGYETKEELIFRYCSGSCDAAETTYDKILKNLSRNRRLVSDKVGQACCRPIAFDDDLSFLDDNLVYHILRKHSAKRCGCI |  |  |  |  | at least two-fold
